Self-cleavage data for 167 variants are collected here from the RNAGym collection of RNA variant scans (doi:10.7554/elife.80360).

B1: HDV Ribozyme (parent)
chain: GGCCGGCAUGGUCCCAGCCUCCUCGCUGGCGCCGGCUGGGCAACAUUCCGAGGGGACCGUCCCCUCGGUAAUGGCGAAUGGGACCCA

The series covers variants of B1. The series can be described thus: self-cleavage, relative activity (ratio to wild type); higher = more cleavage; co-transcriptional.
Turning to G53U C84A, the self-cleavage turned out to be 0.754. As for C19U G82A, the self-cleavage worked out at 0.0511.

For C7U U37G, the self-cleavage came to 0.19. C22G A87G: the self-cleavage was 0.106. With C63U A83C the figure was 0.502; with C4U A45U, 0.458; with G10U G68C, 0.564. The figure for C4A C15A is 0.198; for G5U C57U it is 0.604; for G2A U47C it is 0.0292. Take G38U A42C: the self-cleavage came out at 0.0941. Consider U60C C64A, for which the self-cleavage came to 1.13.

For the variant A56C C86U, the self-cleavage worked out at 1.03.

Turning to G17C G76U, the self-cleavage worked out at 0.773. For the variant C14A G80C, the self-cleavage came out at 0.104.

On to C62G A83U, for which the self-cleavage is 0.17.

Turning to C18A G52C, the self-cleavage is 0.0346. Turning to G1C C36U, the self-cleavage worked out at 0.394.

Consider C3U G25U, for which the self-cleavage was 0.0175. Turning to A70U C85A, the self-cleavage amounted to 1.06. With G6U G31A the figure was 0.282. For the variant G6C C57U, the self-cleavage amounted to 0.269. On to U72A G76A, for which the self-cleavage turned out to be 0.759. In the case of C14U G25C, the self-cleavage turned out to be 0.199.

In the case of G52A U65A, the self-cleavage was 0.954. As for C14U A87U, the self-cleavage worked out at 1.08. The figure for G38C G82U is 0.162; for A83U C84G it is 0.332; for G40U G54A it is 0.694. The figure for G1C G34A is 0.0405; for C4U C32U it is 0.525. With G1C G29A the figure was 0.0536; with U12C G73C, 0.116; with G5U G76A, 0.391. In the case of C13A C22U, the self-cleavage worked out at 0.0583.

As to C32U U69C, the self-cleavage is 1.19. As for G2U G40U, the self-cleavage stood at 0.0132. With G52A G82U the figure was 0.367; with U12G G17C, 0.192; with C64U G67C, 0.906. The figure for C4U C14G is 0.369. The figure for C3G U46G is 0.248; for U72A C84G it is 0.213; for U46G G52A it is 0.297.

For the variant G59U C63U, the self-cleavage came to 1.04. With G17A U46C the figure was 0.506; with U20G C86U, 0.214; with G1U G31A, 0.364. As to A8G U47G, the self-cleavage is 0.782. With A8G U47A the figure was 1.05; with G5C G17A, 0.0852.

Turning to G34C G53A, the self-cleavage amounted to 0.229.

For C30U G67U, the self-cleavage is 0.75.

Turning to U9G G68A, the self-cleavage is 0.831. As for U27G U60G, the self-cleavage was 0.978.

Turning to C48A G54A, the self-cleavage amounted to 1.06. The figure for G53A G76A is 1.16; for G11A G31U it is 0.0475; for G74A A87U it is 0.628.

For C48U G67A, the self-cleavage worked out at 0.818. Consider G1C U60A, for which the self-cleavage was 0.237. Consider G6U G52C, for which the self-cleavage worked out at 0.554. The figure for C18A G82C is 0.122; for A71C G80A it is 0.266.

Turning to G52A G53A, the self-cleavage came out at 0.89. With U69A C75A the figure was 0.119; with A45G A83G, 0.95.

Take G1A A87C: the self-cleavage stood at 0.121. With U20G C62A the figure was 0.312; with C26U G76C, 0.87. For the variant C3U U72C, the self-cleavage was 0.471. For the variant C13G G25U, the self-cleavage came out at 0.232.

C21A A45C: the self-cleavage was determined as 0.0652. As to G50C U65G, the self-cleavage was determined as 0.453. Regarding A45G C66A, the self-cleavage came out at 0.812. With G55A C85U the figure was 0.885. The figure for C15A G31A is 0.16; for G11U A56G it is 0.378; for G2C G5A it is 0.0563. With C13U U46G the figure was 0.356; with A16C A77G, 0.831; with G35U C84A, 0.308. For the variant A16C A42U, the self-cleavage was 0.208. A42G U46C: the self-cleavage is 0.369. With C7A C85G the figure was 0.688.

G39U A71U: the self-cleavage was 0.431. The figure for G54U A70C is 0.515; for C4U C58U it is 1.15; for C36G U69A it is 0.229. The figure for C36G U69C is 0.155; for G31U C75U it is 0.0665; for C18U G80C it is 0.102. Regarding G2C C13G, the self-cleavage was 0.0504. For C14U C21G, the self-cleavage turned out to be 0.125. The figure for C4U A70G is 0.541.

As for C21A C44U, the self-cleavage came to 0.0346. With C85G A87U the figure was 0.785; with G28U A45U, 0.193; with A8C G25A, 0.172.

U37G U65G: the self-cleavage came out at 0.0573. Consider C15G G31A, for which the self-cleavage is 0.138. On to C13G G28C, for which the self-cleavage turned out to be 0.0504.

On to G11C A43G, for which the self-cleavage was 0.0536.

In the case of C57A A87C, the self-cleavage stood at 1.05.

C26U G31U: the self-cleavage was determined as 0.762. With C13U G54C the figure was 0.623; with G35C C61G, 0.217; with G68C G80A, 0.421. As to C58U G82U, the self-cleavage came to 0.34. For C44U U79G, the self-cleavage is 0.727. With G52A G76C the figure was 1.24; with C22G A78U, 0.0396; with G67U A78G, 0.791. The figure for C15U A71U is 0.598; for C66G C75U it is 0.157.

For G25A U79A, the self-cleavage came out at 0.0437. On to C4U G54U, for which the self-cleavage was 0.789. For the variant C19G C66U, the self-cleavage was found to be 0.0639.

As to A77U A78C, the self-cleavage amounted to 0.332. In the case of C3A G11U, the self-cleavage was 0.138. For G6U G29A, the self-cleavage amounted to 0.102.

As to U46C C63U, the self-cleavage amounted to 0.671. On to G31A G39C, for which the self-cleavage was 0.182. With C33A C86G the figure was 0.277.

For U20A G35C, the self-cleavage stood at 0.122. As for U20G A42C, the self-cleavage came to 0.0875. The figure for C33G C64U is 0.306; for G53C C86A it is 0.866; for A78U it is 0.316. The figure for C13U A43U is 0.151; for C22U A45G it is 0.656; for U23G C58A it is 0.877. The figure for C18G C22U is 0.0504. As for C4U U46A, the self-cleavage is 0.485.

Turning to G11U G38C, the self-cleavage stood at 0. On to A51C A70U, for which the self-cleavage is 1.15.

Consider G68U G81C, for which the self-cleavage was 0.223. The figure for C18U A70C is 0.514; for C18U A70U it is 0.658; for C18U A70G it is 0.752.

Consider C48U G59A, for which the self-cleavage was 1.06.

Turning to U27A A71U, the self-cleavage came out at 0.906. G82C C84G: the self-cleavage came out at 0.101.

Regarding C44U G53C, the self-cleavage is 0.658.

For the variant G28A C33G, the self-cleavage turned out to be 0.149. Turning to G59A G67C, the self-cleavage is 1.05. The figure for C3U C63A is 0.909.

As for U27G A56G, the self-cleavage is 1.06.

As to C48U U69A, the self-cleavage was determined as 1.04. On to C61U G74C, for which the self-cleavage worked out at 0.253.

Consider U37G G53A, for which the self-cleavage came to 0.147. The figure for G35A U72C is 0.283; for C19G C33A it is 0.111.

Take G17A G76U: the self-cleavage worked out at 0.863. In the case of G55A G81U, the self-cleavage was 0.34.

Regarding C66U U69C, the self-cleavage stood at 0.92.

Consider G31U A42U, for which the self-cleavage turned out to be 0.104. Consider C61A A83C, for which the self-cleavage is 0.342. With U20G G40U the figure was 0.131; with G31C U65C, 0.361. Turning to G68A G73U, the self-cleavage stood at 0.251. The figure for C24U C75A is 0.0639; for G25C G38C it is 0.119. For the variant C3U U65G, the self-cleavage is 0.682.

On to G6U C75G, for which the self-cleavage was 0.145. Take G25U C36U: the self-cleavage came out at 0.218. With C21U A42G the figure was 0.0652.
